Experimental data as given in patent publication US7119174B2, “Diagnosis and treatment of AUR1 and/or AUR2 related disorders” (Sugen, Inc., priority 1995, dated 2006).
Residue numbers refer to the chain shown, from its start. Numbers in names are those of the source.

B1: HA-tagged activated human AUR2 mutant T288D (protein)
chain: MDRSKENCISGPVKATAPVGGPKRVLVTQQFPCQNPLPVNSGQAQRVLCPSNSSQRVPLQAQKLVSSHKPVQNQKQKQLQATSVPHPVSRPLNNTQKSKQPLPSAPENNPEEELASKQKNEESKKRQWALEDFEIGRPLGKGKFGNVYLAREKQSKFILALKVLFKAQLEKAGVEHQLRREVEIQSHLRHPNILRLYGYFHDATRVYLILEYAPLGTVYRELQKLSKFDEQRTATYITELANALSYCHSKRVIHRDIKPENLLLGSAGELKIADFGWSVHAPSSRRTDLCGTLDYLPPEMIEGRMHDEKVDLWSLGVLCYEFLVGKPPFEANTYQETYKRISRVEFTFPDFVTEGARDLISRLLKHNPSQRPMLREVLEHPWITANSSKPSNCQNKESASKQSYPYDVPDYAS
B2: HA-tagged wild-type human AUR2 (entire coding domain with C-terminal HA epitope) (protein)
chain: B1 chain with D288T
B3: HA-tagged kinase inactive human AUR2 mutant K162M (protein)
chain: B1 chain with K162M, D288T
B4: human AUR2 (AURORA TWO), endogenous protein in lysates of human tumors and tumor cell lines (protein)
chain: MDRSKENCISGPVKATAPVGGPKRVLVTQQFPCQNPLPVNSGQAQRVLCPSNSSQRVPLQAQKLVSSHKPVQNQKQKQLQATSVPHPVSRPLNNTQKSKQPLPSAPENNPEEELASKQKNEESKKRQWALEDFEIGRPLGKGKFGNVYLAREKQSKFILALKVLFKAQLEKAGVEHQLRREVEIQSHLRHPNILRLYGYFHDATRVYLILEYAPLGTVYRELQKLSKFDEQRTATYITELANALSYCHSKRVIHRDIKPENLLLGSAGELKIADFGWSVHAPSSRRTTLCGTLDYLPPEMIEGRMHDEKVDLWSLGVLCYEFLVGKPPFEANTYQETYKRISRVEFTFPDFVTEGARDLISRLLKHNPSQRPMLREVLEHPWITANSSKPSNCQNKESASKQS
B5: human AUR1 (AURORA ONE), endogenous protein in SW480 cell lysate (protein)
chain: MAQKENSYPWPYGRQTAPSGLSTLPQRVLRKEPVTPSALVLMSRSNVQPTAAPGQKVMENSSGTPDILTRHFTIDDFEIGRPLGKGKFGNVYLAREKKSHFIVALKVLFKSQIEKEGVEHQLRREIEIQAHLHHPNILRLYNYFYDRRRIYLILEYAPRGELYKELQKSCTFDEQRTATIMEELADALMYCHGKKVIHRDIKPENLLLGLKGELKIADFGWSVHAPSLRRKTMCGTLDYLPPEMIEGRMHNEKVDLWCIGVLCYELLVGNPPFESASHNETYRRIVKVDLKFPASVPTGAQDLISKLLRHNPSERLPLAQVSAHPWVRANSRRVLPPSALQSVA

What follows are molecules tested against alpha-casein (assay: not given). Settings: not given.

| Molecule | in vitro kinase assay on protein from stable Rat1 lines |
| --- | --- |
| B1 | the wild-type and activated AUR2 (T288D) proteins had increased activity on this artificial substrate |
| B2 | the wild-type and activated AUR2 (T288D) proteins had increased activity on this artificial substrate |
| B3 | The kinase inactive AUR2 mutant (K162M) was unable to phosphorylate-casein over the levels observed in the vector control cell line in vitro |

The molecules below were run against myelin basic protein (Sigma) (assay: not given). Settings: not given.

| Molecule | in vitro kinase assay, phosphorylation of myelin basic protein | in vitro kinase assay on protein from stable NIH3T3 lines |
| --- | --- | --- |
| B4 | AUR1 and AUR2 immunocomplexes were able to phosphorylate myelin basic protein |  |
| B5 | AUR1 and AUR2 immunocomplexes were able to phosphorylate myelin basic protein |  |
| B1 |  | the activated AUR2 mutant (T288D) had marked activity on this artificial substrate |
| B2 |  | The wild-type and kinase inactive AUR2 mutant (K162M) were unable to phosphorylate myelin basic protein in vitro |
| B3 |  | The wild-type and kinase inactive AUR2 mutant (K162M) were unable to phosphorylate myelin basic protein in vitro |

These molecules were tested on AUR2 (assay: AUR2 protein expression by immunoblot after antisense oligo treatment of H1299 cells). Settings: human tumor cell line H1299, lipofectin, each oligo 1 μM then 200 nM, harvested ~40 hours after initial treatment.
Type: cell-based
Procedure: Human H1299 cells were seeded at ˜40–50% confluency in a 6 well plate (Falcon). The following day lipofectin (Gibco) and oligo(s) were mixed with OptiMEM (Gibco) such that the final concentration of lipofectin is 100 μg/mL and the final concentration of each oligo is 1 μM in a volume of 200 μL. The lipofectin/oligo/OptiMEM mixture was incubated at room temperature (20–25° C.) for 15 minutes, 800 μL of OptiMEM was added to the lipofectin/oligo/OptiMEM mixture, and mixed gently. The growth medium was removed from the H1299 cells, which were at ˜80% confluency. Cells were washed once with OptiMEM. The OptiMEM was aspirated, the lipofectin/oligo/OptiMEM mixture was added, cultures incubated at 37° C. for 4 hours. The lipofectin/oligo/OptiMEM mixture was removed and replaced with normal growth medium containing the antisense oligo(s) at a concentration of 200 nM. The plates were returned to the 37° C. incubator for 16–20 hours after which the growth medium was removed from the cells and they were washed once with OptiMEM. The OptiMEM was again aspirated and the lipofectin/oligo/OptiMEM mixture was added (prepared as described above) and the plates again were incubated at 37° C. for 4 hours. The lipofectin/oligo/OptiMEM mixture was removed again and replaced with normal growth medium containing the antisense oligo(s) at a concentration of 200 nM. The platea were returned to the 37° C. incubator for 16–20 hours. The cells were harvested (˜40 hours after initial treatment) and analyzed for aur2 mRNA by northern blot or AUR2 protein expression by immunoblot.

| Molecule | AUR2 protein expression |
| --- | --- |
| SEQ ID NO:16: printed in b341 as antisense oligonucleotide targeting human aur2 mRNA; probably misprint for one of SEQ ID NO:30-32 (antisense GARTTYGGNGARGTNTTYYTNGC; listed as DNA, chemistry not fully specified) | significantly down regulate |
| SEQ ID NO:17: printed in b341 as antisense oligonucleotide targeting human aur2 mRNA; probably misprint for one of SEQ ID NO:30-32 (antisense AGNACNCCRAANGCCCACACRTC; listed as DNA, chemistry not fully specified) | significantly down regulate |
| CGTCCGCCACTCCGACCAGCC (listed as DNA, chemistry not given here) [SEQ ID NO:31, antisense oligonucleotide to nucleotides 42–62 of aur2] | significantly down regulated |
| CAGGGCAGAGTGGTCACTTTC (listed as DNA, chemistry not given here) [SEQ ID NO:30, antisense oligonucleotide to nucleotides 1743–1763 of aur2] | significantly down regulated |
| TGCAGTCGAACCTTGCCTCCA (listed as DNA, chemistry not given here) [SEQ ID NO:32, antisense oligonucleotide to nucleotides 1654–1674 of aur2] | significantly down regulated |
